Laboratory results as given in publication PMC10646045.

Key:
Assay in all cases: nanopore single-molecule
[1] = tested on: HCoV-229E nucleocapsid protein (HCoV-229E); details: 20 nM protein, 200 pM probe; SPR: DPBS running buffer, temperature not stated; nanopore: 2 M LiCl, 5 mM MgCl2, 10 mM Tris-HCl, 1 mM EDTA, pH 8, 300 mV, about 2 h incubation
[2] = tested on: HCoV-OC43 nucleocapsid protein (HCoV-OC43); details: 20 nM protein, 200 pM probe; SPR: DPBS running buffer, temperature not stated; nanopore: 2 M LiCl, 5 mM MgCl2, 10 mM Tris-HCl, 1 mM EDTA, pH 8, 300 mV, about 2 h incubation
[3] = molecular target: SARS-CoV-2 nucleocapsid protein (SARS-CoV-2) (UniProt P0DTC9)
[4] = tested on: HCoV-NL63 spike protein (HCoV-NL63); details: 200 nM protein, 200 pM probe; SPR: DPBS running buffer, temperature not stated; nanopore: 2 M LiCl, 5 mM MgCl2, 10 mM Tris-HCl, 1 mM EDTA, pH 8, 300 mV, about 2 h incubation
[5] = tested on: spike protein from lysed SARS-CoV-2 pseudovirus (SARS-CoV-2)
[6] = molecular target: SARS-CoV-2 spike protein S1 region (SARS-CoV-2) (UniProt P0DTC2)
[7] = tested on: HCoV-OC43 spike protein (HCoV-OC43); details: 200 nM protein, 200 pM probe; SPR: DPBS running buffer, temperature not stated; nanopore: 2 M LiCl, 5 mM MgCl2, 10 mM Tris-HCl, 1 mM EDTA, pH 8, 300 mV, about 2 h incubation

| Substance | binding signal (% bound events) [1] | binding signal (% bound events) [2] | binding signal (% bound events) [3] | binding signal (% bound events) [4] | binding signal (% bound events) [5] | binding signal (% bound events) [6] | binding signal (% bound events) [7] |
| --- | --- | --- | --- | --- | --- | --- | --- |
| NBA centre-labelled 10 kbp molecular probe | 0.31 | 0.83 | 5.71 |  |  |  |  |
| SBA end-labelled 10 kbp molecular probe |  |  |  | 0.02 | 0.6 | 9.82 | 0.5 |
